Values belong to the binder of their own block, whether it stands above or below them.
Key:
[1] = biological target: KEAP1 (wild-type full-length), His-tagged (human) (UniProt Q14145); assay: AlphaScreen; NRF2 wt isoform 1 9.6 nM, KEAP1 150 nM; set as the 100 % reference for Q75R
[2] = biological target: KEAP1 (wild-type full-length), His-tagged (human) (UniProt Q14145); assay: AlphaScreen; 4.8 nM FLAG-NRF2, 150 nM His-KEAP1; Rep 2; control for I28V
[3] = biological target: KEAP1 (wild-type full-length), His-tagged (human) (UniProt Q14145); assay: AlphaScreen; 38.4 nM FLAG-NRF2, 150 nM His-KEAP1; Repeat 1 (same value as in Table 26)
[4] = biological target: KEAP1 (wild-type full-length), His-tagged (human) (UniProt Q14145); assay: AlphaScreen; FLAG-NRF2 wt isoform 1 9.6 nM, His-KEAP1 150 nM; Rep 1; positive control for Q75R
[5] = biological target: KEAP1 (wild-type full-length), His-tagged (human) (UniProt Q14145); assay: AlphaScreen; FLAG-NRF2 I86V 1228.8 nM, His-KEAP1 150 nM; Rep 3
[6] = biological target: KEAP1 (wild-type full-length), His-tagged (human) (UniProt Q14145); assay: AlphaScreen; FLAG-NRF2 Q75R 38.4 nM, His-KEAP1 150 nM; Rep 2
[7] = biological target: KEAP1 (wild-type full-length), His-tagged (human) (UniProt Q14145); assay: AlphaScreen; 19.2 nM FLAG-NRF2, 150 nM His-KEAP1; Repeat 2 (same value as in Table 27)
[8] = biological target: KEAP1 (wild-type full-length), His-tagged (human) (UniProt Q14145); assay: AlphaScreen; 38.4 nM FLAG-NRF2, 150 nM His-KEAP1 (same value as in Table 27)
[9] = biological target: KEAP1 (wild-type full-length), His-tagged (human) (UniProt Q14145); assay: AlphaScreen; 76.8 nM FLAG-NRF2, 150 nM His-KEAP1; Rep 1

Sequence of KEAP1 (wild-type full-length), His-tagged (human) (Q14145 2-624 limits assumed): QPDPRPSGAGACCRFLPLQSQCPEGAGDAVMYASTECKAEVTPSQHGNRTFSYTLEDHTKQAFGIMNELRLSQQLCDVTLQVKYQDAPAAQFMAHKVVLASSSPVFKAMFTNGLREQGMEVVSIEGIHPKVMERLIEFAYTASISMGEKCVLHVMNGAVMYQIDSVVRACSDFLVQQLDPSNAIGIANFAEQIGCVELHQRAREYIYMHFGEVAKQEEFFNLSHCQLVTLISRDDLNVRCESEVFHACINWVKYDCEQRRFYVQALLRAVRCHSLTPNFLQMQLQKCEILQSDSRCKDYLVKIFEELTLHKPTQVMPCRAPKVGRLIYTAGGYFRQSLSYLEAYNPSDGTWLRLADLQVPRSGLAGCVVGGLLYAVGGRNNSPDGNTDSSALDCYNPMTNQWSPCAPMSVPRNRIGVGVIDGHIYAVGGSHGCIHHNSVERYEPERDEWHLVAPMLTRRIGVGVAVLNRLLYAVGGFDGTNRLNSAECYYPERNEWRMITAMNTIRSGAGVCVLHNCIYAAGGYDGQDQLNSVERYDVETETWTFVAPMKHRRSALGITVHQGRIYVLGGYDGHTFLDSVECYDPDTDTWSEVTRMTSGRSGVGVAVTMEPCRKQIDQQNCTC

B2: NRF2 isoform 1 (I86V full-length), FLAG-tagged (protein)
chain: MMDLELPPPGLPSQQDMDLIDILWRQDIDLGVSREVFDFSQRRKEYELEKQKKLEKERQEQLQKEQEKAFFAQLQLDEETGEFLPVQPAQHIQSETSGSANYSQVAHIPKSDALYFDDCMQLLAQTFPFVDDNEVSSATFQSLVPDIPGHIESPVFIATNQAQSPETSVAQVAPVDLDGMQQDIEQVWEELLSIPELQCLNIENDKLVETTMVPSPEAKLTEVDNYHFYSSIPSMEKEVGNCSPHFLNAFEDSFSSILSTEDPNQLTVNSLNSDATVNTDFGDEFYSAFIAEPSISNSMPSPATLSHSLSELLNGPIDVSDLSLCKAFNQNHPESTAEFNDSDSGISLNTSPSVASPEHSVESSSYGDTLLGLSDSEVEELDSAPGSVKQNGPKTPVHSSGDMVQPLSPSQGQSTHVHDAQCENTPEKELPVSPGHRKTPFTKDKHSSRLEAHLTRDELRAKALHIPFPVEKIINLPVVDFNEMMSKEQFNEAQLALIRDIRRRGKNKVAAQNCRKRKLENIVELEQDLDHLKDEKEKLLKEKGENDKSLHLLKKQLSTLYLEVFSMLRDEDGKPYSPSEYSLQQTRDGNVFLVPKSKKPDVKKN
- A-counts (NRF2 plus KEAP1) [5]: 1620 A-counts

B4: NRF2 isoform 1 (I28V full-length), FLAG-tagged (protein)
chain: MMDLELPPPGLPSQQDMDLIDILWRQDVDLGVSREVFDFSQRRKEYELEKQKKLEKERQEQLQKEQEKAFFAQLQLDEETGEFLPIQPAQHIQSETSGSANYSQVAHIPKSDALYFDDCMQLLAQTFPFVDDNEVSSATFQSLVPDIPGHIESPVFIATNQAQSPETSVAQVAPVDLDGMQQDIEQVWEELLSIPELQCLNIENDKLVETTMVPSPEAKLTEVDNYHFYSSIPSMEKEVGNCSPHFLNAFEDSFSSILSTEDPNQLTVNSLNSDATVNTDFGDEFYSAFIAEPSISNSMPSPATLSHSLSELLNGPIDVSDLSLCKAFNQNHPESTAEFNDSDSGISLNTSPSVASPEHSVESSSYGDTLLGLSDSEVEELDSAPGSVKQNGPKTPVHSSGDMVQPLSPSQGQSTHVHDAQCENTPEKELPVSPGHRKTPFTKDKHSSRLEAHLTRDELRAKALHIPFPVEKIINLPVVDFNEMMSKEQFNEAQLALIRDIRRRGKNKVAAQNCRKRKLENIVELEQDLDHLKDEKEKLLKEKGENDKSLHLLKKQLSTLYLEVFSMLRDEDGKPYSPSEYSLQQTRDGNVFLVPKSKKPDVKKN
- A-counts [7]: 1700 A-counts
- S/N [8]: 2.7
- A-counts [9]: 1560 A-counts

Continued, values first:

- Binding Percentage [1]: 100%
- A-counts [2]: 1160 A-counts
- A-counts [3]: 2000 A-counts
- A-counts (NRF2 plus KEAP1) [4]: 1024 A-counts
B1: NRF2 isoform 1 (wild-type full-length), FLAG-tagged (protein)
chain: MMDLELPPPGLPSQQDMDLIDILWRQDIDLGVSREVFDFSQRRKEYELEKQKKLEKERQEQLQKEQEKAFFAQLQLDEETGEFLPIQPAQHIQSETSGSANYSQVAHIPKSDALYFDDCMQLLAQTFPFVDDNEVSSATFQSLVPDIPGHIESPVFIATNQAQSPETSVAQVAPVDLDGMQQDIEQVWEELLSIPELQCLNIENDKLVETTMVPSPEAKLTEVDNYHFYSSIPSMEKEVGNCSPHFLNAFEDSFSSILSTEDPNQLTVNSLNSDATVNTDFGDEFYSAFIAEPSISNSMPSPATLSHSLSELLNGPIDVSDLSLCKAFNQNHPESTAEFNDSDSGISLNTSPSVASPEHSVESSSYGDTLLGLSDSEVEELDSAPGSVKQNGPKTPVHSSGDMVQPLSPSQGQSTHVHDAQCENTPEKELPVSPGHRKTPFTKDKHSSRLEAHLTRDELRAKALHIPFPVEKIINLPVVDFNEMMSKEQFNEAQLALIRDIRRRGKNKVAAQNCRKRKLENIVELEQDLDHLKDEKEKLLKEKGENDKSLHLLKKQLSTLYLEVFSMLRDEDGKPYSPSEYSLQQTRDGNVFLVPKSKKPDVKKN

- A-counts (NRF2 plus KEAP1) [6]: 1280 A-counts
B3: NRF2 isoform 1 (Q75R full-length), FLAG-tagged (protein)
chain: MMDLELPPPGLPSQQDMDLIDILWRQDIDLGVSREVFDFSQRRKEYELEKQKKLEKERQEQLQKEQEKAFFAQLRLDEETGEFLPIQPAQHIQSETSGSANYSQVAHIPKSDALYFDDCMQLLAQTFPFVDDNEVSSATFQSLVPDIPGHIESPVFIATNQAQSPETSVAQVAPVDLDGMQQDIEQVWEELLSIPELQCLNIENDKLVETTMVPSPEAKLTEVDNYHFYSSIPSMEKEVGNCSPHFLNAFEDSFSSILSTEDPNQLTVNSLNSDATVNTDFGDEFYSAFIAEPSISNSMPSPATLSHSLSELLNGPIDVSDLSLCKAFNQNHPESTAEFNDSDSGISLNTSPSVASPEHSVESSSYGDTLLGLSDSEVEELDSAPGSVKQNGPKTPVHSSGDMVQPLSPSQGQSTHVHDAQCENTPEKELPVSPGHRKTPFTKDKHSSRLEAHLTRDELRAKALHIPFPVEKIINLPVVDFNEMMSKEQFNEAQLALIRDIRRRGKNKVAAQNCRKRKLENIVELEQDLDHLKDEKEKLLKEKGENDKSLHLLKKQLSTLYLEVFSMLRDEDGKPYSPSEYSLQQTRDGNVFLVPKSKKPDVKKN
